This passage reports percent FRET efficiency (region of colocalization) results from publication PMC2441640.

Test [1] deals with Pyst1 fused to enhanced yellow fluorescent protein (EYFP-Pyst1) (UniProt Q16828). Nature of the test: FRET or BRET.
The target in test [2] is ORF3 protein fused to enhanced cyan fluorescent protein (ECFP-ORF3) (hepatitis E virus). Nature of the test: FRET or BRET.

Chain of UniProt Q16828 (Q16828 whole entry, the tested form may be a part): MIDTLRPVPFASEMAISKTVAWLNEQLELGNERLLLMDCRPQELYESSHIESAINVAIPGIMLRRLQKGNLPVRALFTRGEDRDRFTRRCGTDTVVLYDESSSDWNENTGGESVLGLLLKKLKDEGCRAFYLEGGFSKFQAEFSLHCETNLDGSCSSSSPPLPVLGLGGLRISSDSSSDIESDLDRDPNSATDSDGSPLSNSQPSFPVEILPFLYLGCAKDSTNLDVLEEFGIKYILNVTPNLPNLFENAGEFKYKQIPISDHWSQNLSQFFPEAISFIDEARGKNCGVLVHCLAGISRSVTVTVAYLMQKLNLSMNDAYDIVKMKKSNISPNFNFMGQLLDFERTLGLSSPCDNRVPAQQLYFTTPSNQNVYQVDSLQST

For the substance “ORF3 protein fused to enhanced cyan fluorescent protein (ECFP-ORF3) (natural protein)”, the percent FRET efficiency (region of colocalization) amounted to 27.8% in test [1] and 26.4% in test [2].
